Source: US10919943B2, “Mutant proteins enabling agrochemical control of plant gene expression” (The Regents of the University of California, priority 2016, dated 2021)
Where a chain is given by its changes, count along the chain named. Names and notes keep the numbering of the source.

B1: N151G: PYR1 mutant (protein, UniProt O49686 1-191, looked up, variant N151G)
Abscisic acid receptor PYR1: MPSELTPEERSELKNSIAEFHTYQLDPGSCSSLHAQRIHAPPELVWSIVRRFDKPQTYKHFIKSCSVEQNFEMRVGCTRDVIVISGLPANTSTERLDILDDERRVTGFSIIGGEHRLTNYKSVTTVHRFEKENRIWTVVLESYVVDMPEGGSEDDTRMFADTVVKLNLQKLATVAEAMARNSGDGSGSQVT
B2: N151I: PYR1 mutant (protein, UniProt O49686 1-191, looked up, variant N151I)
Abscisic acid receptor PYR1: B1 Abscisic acid receptor PYR1 with G151I
B3: T156Q: PYR1 mutant (protein, UniProt O49686 1-191, looked up, variant T156Q)
Abscisic acid receptor PYR1: B1 Abscisic acid receptor PYR1 with G151N, T156Q
B4: D155Y: PYR1 mutant (protein, UniProt O49686 1-191, looked up, variant D155Y)
Abscisic acid receptor PYR1: B1 Abscisic acid receptor PYR1 with G151N, D155Y
B5: T156Y: PYR1 mutant (protein, UniProt O49686 1-191, looked up, variant T156Y)
Abscisic acid receptor PYR1: B1 Abscisic acid receptor PYR1 with G151N, T156Y
B6: D155G: PYR1 mutant (protein, UniProt O49686 1-191, looked up, variant D155G)
Abscisic acid receptor PYR1: B1 Abscisic acid receptor PYR1 with G151N, D155G
B7: T156N: PYR1 mutant (protein, UniProt O49686 1-191, looked up, variant T156N)
Abscisic acid receptor PYR1: B1 Abscisic acid receptor PYR1 with G151N, T156N
B8: T156K: PYR1 mutant (protein, UniProt O49686 1-191, looked up, variant T156K)
Abscisic acid receptor PYR1: B1 Abscisic acid receptor PYR1 with G151N, T156K
B9: D155I: PYR1 mutant (protein, UniProt O49686 1-191, looked up, variant D155I)
Abscisic acid receptor PYR1: B1 Abscisic acid receptor PYR1 with G151N, D155I
B10: N151K: PYR1 mutant (protein, UniProt O49686 1-191, looked up, variant N151K)
Abscisic acid receptor PYR1: B1 Abscisic acid receptor PYR1 with G151K
B11: T156I: PYR1 mutant (protein, UniProt O49686 1-191, looked up, variant T156I)
Abscisic acid receptor PYR1: B1 Abscisic acid receptor PYR1 with G151N, T156I
B12: T156G: PYR1 mutant (protein, UniProt O49686 1-191, looked up, variant T156G)
Abscisic acid receptor PYR1: B1 Abscisic acid receptor PYR1 with G151N, T156G
B13: D155M: PYR1 mutant (protein, UniProt O49686 1-191, looked up, variant D155M)
Abscisic acid receptor PYR1: B1 Abscisic acid receptor PYR1 with G151N, D155M
B14: T156L: PYR1 mutant (protein, UniProt O49686 1-191, looked up, variant T156L)
Abscisic acid receptor PYR1: B1 Abscisic acid receptor PYR1 with G151N, T156L
B15: T156F: PYR1 mutant (protein, UniProt O49686 1-191, looked up, variant T156F)
Abscisic acid receptor PYR1: B1 Abscisic acid receptor PYR1 with G151N, T156F
B16: D155F: PYR1 mutant (protein, UniProt O49686 1-191, looked up, variant D155F)
Abscisic acid receptor PYR1: B1 Abscisic acid receptor PYR1 with G151N, D155F
B17: F159N: PYR1 mutant (protein, UniProt O49686 1-191, looked up, variant F159N)
Abscisic acid receptor PYR1: B1 Abscisic acid receptor PYR1 with G151N, F159N
B18: D155P: PYR1 mutant (protein, UniProt O49686 1-191, looked up, variant D155P)
Abscisic acid receptor PYR1: B1 Abscisic acid receptor PYR1 with G151N, D155P
B19: T156H: PYR1 mutant (protein, UniProt O49686 1-191, looked up, variant T156H)
Abscisic acid receptor PYR1: B1 Abscisic acid receptor PYR1 with G151N, T156H
B20: T156M: PYR1 mutant (protein, UniProt O49686 1-191, looked up, variant T156M)
Abscisic acid receptor PYR1: B1 Abscisic acid receptor PYR1 with G151N, T156M
B21: M158P: PYR1 mutant (protein, UniProt O49686 1-191, looked up, variant M158P)
Abscisic acid receptor PYR1: B1 Abscisic acid receptor PYR1 with G151N, M158P
B22: T156E: PYR1 mutant (protein, UniProt O49686 1-191, looked up, variant T156E)
Abscisic acid receptor PYR1: B1 Abscisic acid receptor PYR1 with G151N, T156E
B23: D155C: PYR1 mutant (protein, UniProt O49686 1-191, looked up, variant D155C)
Abscisic acid receptor PYR1: B1 Abscisic acid receptor PYR1 with G151N, D155C
B24: D155V: PYR1 mutant (protein, UniProt O49686 1-191, looked up, variant D155V)
Abscisic acid receptor PYR1: B1 Abscisic acid receptor PYR1 with G151N, D155V
B25: D155L: PYR1 mutant (protein, UniProt O49686 1-191, looked up, variant D155L)
Abscisic acid receptor PYR1: B1 Abscisic acid receptor PYR1 with G151N, D155L
B26: T156R: PYR1 mutant (protein, UniProt O49686 1-191, looked up, variant T156R)
Abscisic acid receptor PYR1: B1 Abscisic acid receptor PYR1 with G151N, T156R
B27: D155W: PYR1 mutant (protein, UniProt O49686 1-191, looked up, variant D155W)
Abscisic acid receptor PYR1: B1 Abscisic acid receptor PYR1 with G151N, D155W
B28: T156W: PYR1 mutant (protein, UniProt O49686 1-191, looked up, variant T156W)
Abscisic acid receptor PYR1: B1 Abscisic acid receptor PYR1 with G151N, T156W
B29: T156P: PYR1 mutant (protein, listed as Arabidopsis thaliana)
chain: B1 Abscisic acid receptor PYR1 with G151N, T156P
B30: N151H: PYR1 mutant (protein, UniProt O49686 1-191, looked up, variant N151H)
Abscisic acid receptor PYR1: B1 Abscisic acid receptor PYR1 with G151H
B31: T156D: PYR1 mutant (protein, UniProt O49686 1-191, looked up, variant T156D)
Abscisic acid receptor PYR1: B1 Abscisic acid receptor PYR1 with G151N, T156D
B32: D155K: PYR1 mutant (protein, UniProt O49686 1-191, looked up, variant D155K)
Abscisic acid receptor PYR1: B1 Abscisic acid receptor PYR1 with G151N, D155K
B33: D155R: PYR1 mutant (protein, UniProt O49686 1-191, looked up, variant D155R)
Abscisic acid receptor PYR1: B1 Abscisic acid receptor PYR1 with G151N, D155R

Test system: HAB1
Experiment: Yeast two hybrid of pBD-PYR1 site saturation mutants with pACT-HAB1 on 10 μM ABA, β-galactosidase staining
Type: cell-based, Arabidopsis
Parameters: key: x: Mutations in PYR1 that disrupt ABA-induced binding to PYR1 to HAB1
Details: S. cerevisiae Y190, 10 μM ABA; dead = lack of visible staining in comparison to wild type control
Procedure, shortened: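 S. cerevisiae Y190 co-expressing GAL4-DNA-binding-domain–PYR1 mutants and GAL4-activation-domain–HAB1 were spotted on SD (-Leu, -Trp) agar with 10 μM (+)-ABA for 2 days at 30° C. Colonies were chloroform-lysed and stained for β-galactosidase. Mutants lacking visible staining relative to wild type were scored as non-binding.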

| Mutations in PYR1 that disrupt ABA-induced binding to PYR1 to HAB1 | Molecule |
| --- | --- |
| x | B1 |
| x | B2 |
| x | B3 |
| x | B4 |
| x | B5 |
| x | B6 |
| x | B7 |
| x | B8 |
| x | B9 |
| x | B10 |
| x | B11 |
| x | B12 |
| x | B13 |
| x | B14 |
| x | B15 |
| x | B16 |
| x | B17 |

| Mutations in PYR1 that disrupt ABA-induced binding to PYR1 to HAB1 | Molecule |
| --- | --- |
| x | B18 |
| x | B19 |
| x | B20 |
| x | B21 |
| x | B22 |
| x | B23 |
| x | B24 |
| x | B25 |
| x | B26 |
| x | B27 |
| x | B28 |
| x | B29 |
| x | B30 |
| x | B31 |
| x | B32 |
| x | B33 |
